Test results as given in PMC6555819, “Comprehensive study of nuclear receptor DNA binding provides a revised framework for understanding receptor specificity”.

Legend:
[1] = molecular target: VDR:RXRa (Homo sapiens, UniProt P11473;P19793 full;full); assay: no ligand; PBM; 270 nM : 90 nM RXRa; PBS pH 7.4, 2% milk, 0.02% Triton X-100, 1 mM DTT, BSA, 0.4 mg/ml salmon testes DNA; settings: tags: His kept;His cleaved; copies: 1;1; label: surface-attached array probe
Outline: (§1)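 Each nuclear receptor dimer, without ligand, was incubated for 1 h on custom Agilent 4×180K protein-binding microarrays. Binding was detected with antibodies against each partner (one per run), and scanned fluorescence was regression-normalized. The binding z-scores are referenced to random human genomic background probes.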

[2] = molecular target: LXRa:RXRa (Homo sapiens, UniProt Q13133;P19793 full;full); assay: as above; settings: tags: His kept;His cleaved; copies: 1;1; label: surface-attached array probe
Sequence of LXRa:RXRa (Q13133 whole entry, chain 1 of 2): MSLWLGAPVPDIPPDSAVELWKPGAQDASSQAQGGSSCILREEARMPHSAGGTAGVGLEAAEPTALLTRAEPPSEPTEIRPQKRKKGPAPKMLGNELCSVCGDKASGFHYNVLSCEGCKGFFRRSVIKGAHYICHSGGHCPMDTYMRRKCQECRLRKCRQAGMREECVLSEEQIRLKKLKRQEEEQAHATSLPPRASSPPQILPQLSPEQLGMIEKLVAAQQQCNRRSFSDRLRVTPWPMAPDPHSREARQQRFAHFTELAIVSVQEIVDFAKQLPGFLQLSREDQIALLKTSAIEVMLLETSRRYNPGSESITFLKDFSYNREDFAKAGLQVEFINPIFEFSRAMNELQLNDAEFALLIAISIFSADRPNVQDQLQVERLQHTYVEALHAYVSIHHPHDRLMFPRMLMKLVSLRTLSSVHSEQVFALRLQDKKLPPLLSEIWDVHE
Sequence of LXRa:RXRa (P19793 whole entry, chain 2 of 2): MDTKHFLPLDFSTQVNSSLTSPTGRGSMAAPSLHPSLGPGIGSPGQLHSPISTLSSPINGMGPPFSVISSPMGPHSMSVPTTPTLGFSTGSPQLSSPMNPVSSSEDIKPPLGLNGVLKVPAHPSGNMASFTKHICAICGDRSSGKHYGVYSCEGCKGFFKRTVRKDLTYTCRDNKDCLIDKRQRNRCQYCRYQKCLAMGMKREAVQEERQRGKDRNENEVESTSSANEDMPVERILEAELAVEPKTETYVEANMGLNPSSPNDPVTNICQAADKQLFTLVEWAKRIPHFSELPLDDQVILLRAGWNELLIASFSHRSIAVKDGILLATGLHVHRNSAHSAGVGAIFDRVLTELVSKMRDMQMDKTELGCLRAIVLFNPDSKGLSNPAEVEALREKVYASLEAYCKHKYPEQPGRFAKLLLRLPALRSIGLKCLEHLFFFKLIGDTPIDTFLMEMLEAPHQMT
Outline: as §1

[3] = molecular target: LXRb:RXRa (Homo sapiens, UniProt P55055;P19793 full;full); assay: as above; settings: tags: His kept;His cleaved; copies: 1;1; label: surface-attached array probe
Sequence of LXRb:RXRa (P55055 whole entry, chain 1 of 2): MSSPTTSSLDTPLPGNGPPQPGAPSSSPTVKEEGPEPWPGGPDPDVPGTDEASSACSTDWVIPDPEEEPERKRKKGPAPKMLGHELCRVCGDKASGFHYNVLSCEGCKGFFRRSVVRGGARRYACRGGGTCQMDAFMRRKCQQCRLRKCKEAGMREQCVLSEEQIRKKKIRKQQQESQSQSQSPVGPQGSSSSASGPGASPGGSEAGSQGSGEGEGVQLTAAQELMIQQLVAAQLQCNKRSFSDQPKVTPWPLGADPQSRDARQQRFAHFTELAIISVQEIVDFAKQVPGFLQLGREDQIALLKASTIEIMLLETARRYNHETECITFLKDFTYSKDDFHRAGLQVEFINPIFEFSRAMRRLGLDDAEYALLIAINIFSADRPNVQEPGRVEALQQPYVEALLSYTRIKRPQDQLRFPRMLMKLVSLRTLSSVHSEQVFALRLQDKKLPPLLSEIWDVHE
Sequence of LXRb:RXRa (P19793 whole entry, chain 2 of 2): as the sequence (P19793 whole entry, chain 2 of 2) above
Outline: as §1

[4] = molecular target: RARg:RXRa (Homo sapiens, UniProt P13631;P19793 full;full); assay: as above; settings: tags: His kept;His cleaved; copies: 1;1; label: surface-attached array probe
Sequence of RARg:RXRa (P13631 whole entry, chain 1 of 2): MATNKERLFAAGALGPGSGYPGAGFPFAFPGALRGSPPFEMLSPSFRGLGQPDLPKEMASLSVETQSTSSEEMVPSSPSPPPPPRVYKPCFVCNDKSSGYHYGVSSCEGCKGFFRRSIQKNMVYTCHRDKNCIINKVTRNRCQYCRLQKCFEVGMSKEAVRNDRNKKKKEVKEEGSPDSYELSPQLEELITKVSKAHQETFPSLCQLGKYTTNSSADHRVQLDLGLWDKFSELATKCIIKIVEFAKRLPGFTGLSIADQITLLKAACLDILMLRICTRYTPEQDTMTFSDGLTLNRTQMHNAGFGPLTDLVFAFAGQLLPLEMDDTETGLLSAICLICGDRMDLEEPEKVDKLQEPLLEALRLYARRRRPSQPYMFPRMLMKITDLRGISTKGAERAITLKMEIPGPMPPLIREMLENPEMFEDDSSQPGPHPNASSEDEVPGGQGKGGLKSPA
Sequence of RARg:RXRa (P19793 whole entry, chain 2 of 2): as the sequence (P19793 whole entry, chain 2 of 2) above
Outline: as §1

[5] = molecular target: RXRa (Homo sapiens, UniProt P19793); assay: no ligand; PBM; 180 nM; PBS pH 7.4, 2% milk, 0.02% Triton X-100, 1 mM DTT, BSA, 0.4 mg/ml salmon testes DNA; settings: tags: His cleaved; chain copies: 2; label: surface-attached array probe
Sequence of RXRa (P19793 whole entry): as the sequence (P19793 whole entry, chain 2 of 2) above

[6] = molecular target: RARb:RXRa (Homo sapiens, UniProt P10826;P19793 full;full); assay: no ligand; PBM; 270 nM : 90 nM RXRa; PBS pH 7.4, 2% milk, 0.02% Triton X-100, 1 mM DTT, BSA, 0.4 mg/ml salmon testes DNA; settings: tags: His kept;His cleaved; copies: 1;1; label: surface-attached array probe
Sequence of RARb:RXRa (P10826 whole entry, chain 1 of 2): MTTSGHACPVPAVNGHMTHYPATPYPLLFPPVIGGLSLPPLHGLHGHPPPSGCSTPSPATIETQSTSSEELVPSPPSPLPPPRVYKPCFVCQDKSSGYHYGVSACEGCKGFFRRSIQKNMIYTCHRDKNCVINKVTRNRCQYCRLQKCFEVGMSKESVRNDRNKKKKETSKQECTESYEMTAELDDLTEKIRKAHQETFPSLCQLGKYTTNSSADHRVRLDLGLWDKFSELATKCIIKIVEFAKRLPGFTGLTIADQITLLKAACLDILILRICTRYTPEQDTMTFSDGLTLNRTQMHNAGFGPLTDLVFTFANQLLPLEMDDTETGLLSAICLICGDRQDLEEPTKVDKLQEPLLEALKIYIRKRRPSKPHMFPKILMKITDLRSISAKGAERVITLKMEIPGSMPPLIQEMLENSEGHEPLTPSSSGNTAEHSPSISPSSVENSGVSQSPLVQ
Sequence of RARb:RXRa (P19793 whole entry, chain 2 of 2): as the sequence (P19793 whole entry, chain 2 of 2) above
Outline: as §1

[7] = molecular target: FXR:RXRa (Homo sapiens, UniProt Q96RI1;P19793 full;full); assay: as above; settings: tags: His kept;His cleaved; copies: 1;1; label: surface-attached array probe
Sequence of FXR:RXRa (Q96RI1 whole entry, chain 1 of 2): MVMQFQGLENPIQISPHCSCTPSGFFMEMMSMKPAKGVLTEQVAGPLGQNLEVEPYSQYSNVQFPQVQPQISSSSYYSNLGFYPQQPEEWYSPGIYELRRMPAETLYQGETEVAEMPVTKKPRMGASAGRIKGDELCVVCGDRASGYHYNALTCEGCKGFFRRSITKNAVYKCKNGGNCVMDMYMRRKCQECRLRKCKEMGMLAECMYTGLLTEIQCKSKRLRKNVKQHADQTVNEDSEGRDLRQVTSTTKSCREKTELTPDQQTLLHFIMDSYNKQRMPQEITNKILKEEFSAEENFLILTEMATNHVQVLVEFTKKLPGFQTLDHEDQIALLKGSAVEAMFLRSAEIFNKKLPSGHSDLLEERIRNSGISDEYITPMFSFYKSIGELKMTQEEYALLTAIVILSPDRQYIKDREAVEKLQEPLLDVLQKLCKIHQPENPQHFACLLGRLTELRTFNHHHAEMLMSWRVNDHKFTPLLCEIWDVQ
Sequence of FXR:RXRa (P19793 whole entry, chain 2 of 2): as the sequence (P19793 whole entry, chain 2 of 2) above
Outline: as §1

Sequence of VDR:RXRa (P11473 whole entry, chain 1 of 2): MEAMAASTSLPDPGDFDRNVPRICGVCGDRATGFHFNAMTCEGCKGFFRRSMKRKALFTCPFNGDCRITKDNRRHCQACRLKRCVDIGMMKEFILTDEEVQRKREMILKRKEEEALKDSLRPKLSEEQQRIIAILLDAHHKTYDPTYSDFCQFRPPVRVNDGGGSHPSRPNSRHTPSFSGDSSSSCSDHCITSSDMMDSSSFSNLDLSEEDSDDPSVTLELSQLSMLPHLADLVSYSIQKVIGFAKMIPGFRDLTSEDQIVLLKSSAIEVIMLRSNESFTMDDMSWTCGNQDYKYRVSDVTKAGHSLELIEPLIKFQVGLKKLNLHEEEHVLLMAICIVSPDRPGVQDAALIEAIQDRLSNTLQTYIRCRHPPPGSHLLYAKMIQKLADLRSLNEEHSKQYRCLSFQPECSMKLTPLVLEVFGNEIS
Sequence of VDR:RXRa (P19793 whole entry, chain 2 of 2): as the sequence (P19793 whole entry, chain 2 of 2) above

B1: NRC3_wobSeed26_DR1_A14T_o1 (dsDNA)
DNA 1: GCTCTAGTTGGTCTAAGGTCACACACTCGAAATGCGGCGATTGACAGCGTAGAATGAAGG
DNA 2: CCTTCATTCTACGCTGTCAATCGCCGCATTTCGAGTGTGTGACCTTAGACCAACTAGAGC
- binding signal [1]: 4.12 PBM z-score against 500 random probes
- binding signal [2]: 4.12 PBM z-score against 500 random probes

B2: NRC3_wobSeed120_DR4_T8G_o1 (dsDNA)
DNA 1: GCCCGAGGAGGTTACGAGGGGGCATTCAGTGCGAATGCGATTGACAGCGTAGAATGAAGG
DNA 2: CCTTCATTCTACGCTGTCAATCGCATTCGCACTGAATGCCCCCTCGTAACCTCCTCGGGC
- binding signal [2]: 8.32 PBM z-score against 500 random probes
- binding signal [3]: 7.6 PBM z-score against 500 random probes

B3: NRC3_random_hg19_143_o1 (dsDNA)
DNA 1: GCCAAGAATCAGACTCTTAAGTAGATGCCTGTAGCTGCGATTGACAGCGTAGAATGAAGG
DNA 2: CCTTCATTCTACGCTGTCAATCGCAGCTACAGGCATCTACTTAAGAGTCTGATTCTTGGC
- binding signal [1]: -0.44 PBM z-score against 500 random probes
- binding signal [2]: -0.64 PBM z-score against 500 random probes
- binding signal [4]: -0.43 PBM z-score against 500 random probes

B4: NRC3_wobSeed122_DR5_C24G_o1 (dsDNA)
DNA 1: GCGCTAGTTGGTCAGTAAAAGGTGACACACCGGTCGGCGATTGACAGCGTAGAATGAAGG
DNA 2: CCTTCATTCTACGCTGTCAATCGCCGACCGGTGTGTCACCTTTTACTGACCAACTAGCGC
- binding signal [1]: 0.14 PBM z-score against 500 random probes
- binding signal [2]: 0.28 PBM z-score against 500 random probes

B5: NRC3_random_hg19_287_o1 (dsDNA)
DNA 1: GCTCACTCAGAAGAGCAGAGCGACAGTGAATCTGAGGCGATTGACAGCGTAGAATGAAGG
DNA 2: CCTTCATTCTACGCTGTCAATCGCCTCAGATTCACTGTCGCTCTGCTCTTCTGAGTGAGC
- binding signal [5]: 0.27 PBM z-score against 500 random probes
- binding signal [6]: -0.16 PBM z-score against 500 random probes
- binding signal [2]: 0.05 PBM z-score against 500 random probes

B6: NRC3_wobSeed98_DR4_A28C_o1 (dsDNA)
DNA 1: GCACTAGTTGGTCAGCTGAGGTCACACCCAATTCGGGCGATTGACAGCGTAGAATGAAGG
DNA 2: CCTTCATTCTACGCTGTCAATCGCCCGAATTGGGTGTGACCTCAGCTGACCAACTAGTGC
- binding signal [2]: 3.12 PBM z-score against 500 random probes
- binding signal [3]: 3.3 PBM z-score against 500 random probes

B7: NRC3_random_hg19_255_o1 (dsDNA)
DNA 1: GCGGAGGGCAGGCAGGCCTGGAGGAGCATGTGGTGTGCGATTGACAGCGTAGAATGAAGG
DNA 2: CCTTCATTCTACGCTGTCAATCGCACACCACATGCTCCTCCAGGCCTGCCTGCCCTCCGC
- binding signal [2]: -0.19 PBM z-score against 500 random probes
- binding signal [7]: -0.16 PBM z-score against 500 random probes

B8: NRC3_wobSeed109_DR4_A16T_o1 (dsDNA)
DNA 1: GCCGTCCAAGGTCATTGGAGGTCAGTGAAGACAGATGCGATTGACAGCGTAGAATGAAGG
DNA 2: CCTTCATTCTACGCTGTCAATCGCATCTGTCTTCACTGACCTCCAATGACCTTGGACGGC
- binding signal [2]: 8.57 PBM z-score against 500 random probes
- binding signal [3]: 7.27 PBM z-score against 500 random probes

B9: NRC3_random_hg19_258_o1 (dsDNA)
DNA 1: GCGTAAGATGGCAGGTGCCCAGAGCTAAGCTTTGATGCGATTGACAGCGTAGAATGAAGG
DNA 2: CCTTCATTCTACGCTGTCAATCGCATCAAAGCTTAGCTCTGGGCACCTGCCATCTTACGC
- binding signal [5]: -0.61 PBM z-score against 500 random probes
- binding signal [2]: -1 PBM z-score against 500 random probes
- binding signal [4]: -0.94 PBM z-score against 500 random probes

B10: NRC3_wobSeed113_DR4_T12A_o1 (dsDNA)
DNA 1: GCATATGTAGGATAGCTGGGGTCATTCAGACTAGGCGCGATTGACAGCGTAGAATGAAGG
DNA 2: CCTTCATTCTACGCTGTCAATCGCGCCTAGTCTGAATGACCCCAGCTATCCTACATATGC
- binding signal [2]: 3.41 PBM z-score against 500 random probes
- binding signal [3]: 3.83 PBM z-score against 500 random probes

B11: NRC3_wobSeed116_DR4_A21T_o1 (dsDNA)
DNA 1: GCAGAATGAGGTTACCAAAGTTCAGGGAAACGCTTGGCGATTGACAGCGTAGAATGAAGG
DNA 2: CCTTCATTCTACGCTGTCAATCGCCAAGCGTTTCCCTGAACTTTGGTAACCTCATTCTGC
- binding signal [2]: 8.81 PBM z-score against 500 random probes
- binding signal [3]: 6.78 PBM z-score against 500 random probes

B12: NRC3_random_hg19_124_o1 (dsDNA)
DNA 1: GCTCAGTTCCTCTGCAGCCAACCAGTCTTGGTGCCTGCGATTGACAGCGTAGAATGAAGG
DNA 2: CCTTCATTCTACGCTGTCAATCGCAGGCACCAAGACTGGTTGGCTGCAGAGGAACTGAGC
- binding signal [1]: -0.13 PBM z-score against 500 random probes
- binding signal [2]: 0.33 PBM z-score against 500 random probes
